Measurements as given in publication PMC11209835 (Cell metabolism, 2024).
One block for each binder: values may come before it.

Target: T1, Flag-HA-tagged ALOX12, purified (UniProt P18054 1-663)
T1 sequence (looked up): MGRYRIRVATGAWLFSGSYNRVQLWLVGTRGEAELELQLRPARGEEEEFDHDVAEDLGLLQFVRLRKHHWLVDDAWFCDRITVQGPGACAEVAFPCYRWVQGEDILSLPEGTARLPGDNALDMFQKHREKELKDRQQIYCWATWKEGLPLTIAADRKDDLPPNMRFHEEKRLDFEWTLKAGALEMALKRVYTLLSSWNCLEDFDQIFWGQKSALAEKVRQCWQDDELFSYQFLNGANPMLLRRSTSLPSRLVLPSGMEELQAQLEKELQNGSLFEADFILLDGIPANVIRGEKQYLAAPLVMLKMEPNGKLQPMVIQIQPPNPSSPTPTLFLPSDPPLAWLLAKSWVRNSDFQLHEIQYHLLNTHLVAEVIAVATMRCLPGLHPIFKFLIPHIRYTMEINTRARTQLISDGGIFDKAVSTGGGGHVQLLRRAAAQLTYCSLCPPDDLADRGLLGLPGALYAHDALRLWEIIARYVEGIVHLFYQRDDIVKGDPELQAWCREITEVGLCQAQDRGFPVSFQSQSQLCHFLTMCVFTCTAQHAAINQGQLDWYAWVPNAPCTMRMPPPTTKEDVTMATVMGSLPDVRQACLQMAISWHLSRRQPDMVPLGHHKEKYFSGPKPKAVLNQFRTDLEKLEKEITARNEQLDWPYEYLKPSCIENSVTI
Test: pull-down

binding result: binds
B1: GST-PHLDA2 Full-length (amino acids 1-152) (natural protein, human, UniProt Q53GA4 1-152, looked up)
chain: MKSPDEVLREGELEKRSDSLFQLWKKKRGVLTSDRLSLFPASPRARPKELRFHSILKVDCVERTGKYVYFTIVTTDHKEIDFRCAGESCWNAAIALALIDFQNRRALQDFRSRQERTAPAAPAEDAVAAAAAAPSEPSEPSRPSPQPKPRTP

binding result: binds
B2: GST-PHLDA2-PH (amino acids 7-101) (domain or fragment, human, UniProt Q53GA4 7-101, looked up)
chain: VLREGELEKRSDSLFQLWKKKRGVLTSDRLSLFPASPRARPKELRFHSILKVDCVERTGKYVYFTIVTTDHKEIDFRCAGESCWNAAIALALIDF
